Data published in patent US20260116983A1 (University of California, published 2026).

B1: 3159 HC1 + LC3 (humanized) (antibody, V domains shown)
VH: QVTLRESGPALVKPTQTLTLTCTLSGFSLSTSGMGVSWIRQPPGKALEWLAHIYWDDDKRYSTSLKTRLTISKDASKDQVVLTMTNMDTVDTATYYCGRRVRNYFSGTSYWYFDVWGTGTLVTVSS
VL: DIVMTQSPLSLPVTPGEPASISCRSSQNILHRTGNTYLDWYLQKPGQSPQLLIYKVSNRFSGVPDRFSGSGSGTDFTLKISRVEAEDVGVYYCFQGSYVPFTFGQGTKLEIK
notes: detected with anti-human Fc antibody
B2: 3159 HC3 + LC2 (humanized) (antibody, V domains shown)
VH: QITLKESGPTLVKPTQTLTLTCTLSGFSLSTSGMGVSWIRQPPGKALEWLAHIYWDDDKRYNPSLKSRLTITKDASKDQVVLTMTNMDTVDTATYYCGRRVRNYFSGTSYWYFDVWGTGTLVTVSS
VL: DVVMTQSPLSLPVTLGQPASISCRSSQNILHRTGNTYLEWFQQRPGQSPRLLIYKVSNRFSGVPDRFSGSGSGTDFTLKISRVEAEDVGVYYCFQGSYVPFTFGQGTKLEIK
notes: as for B1
B3: 3159 HC2 + LC1 (humanized) (antibody, V domains shown)
VH: QVTLKESGPVLVKPTETLTLTCTVSGFSLSTSGMGVSWIRQPPGKGLEWLAHIYWDDDKRYSPSLKSRLTISKDASKDQVVLTMTNMDTVDTATYYCGRRVRNYFSGTSYWYFDVWGTGTLVTVSS
VL: DIVMTQTPLSLSVTPGQPASISCKSSQNILHRTGNTYLEWYLQKPGQPPQLLIYKVSNRFSGVPDRFSGSGSGTDFTLKISRVEAEDVGVYYCFQGSYVPFTFGQGTKLEIK
notes: as for B1
B4: 3159 HC3 + LC1 (humanized) (antibody, V domains shown)
VH: QITLKESGPTLVKPTQTLTLTCTLSGFSLSTSGMGVSWIRQPPGKALEWLAHIYWDDDKRYNPSLKSRLTITKDASKDQVVLTMTNMDTVDTATYYCGRRVRNYFSGTSYWYFDVWGTGTLVTVSS
VL: DIVMTQTPLSLSVTPGQPASISCKSSQNILHRTGNTYLEWYLQKPGQPPQLLIYKVSNRFSGVPDRFSGSGSGTDFTLKISRVEAEDVGVYYCFQGSYVPFTFGQGTKLEIK
notes: as for B1
B5: 3159 HC2 + LC2 (humanized) (antibody, V domains shown)
VH: QVTLKESGPVLVKPTETLTLTCTVSGFSLSTSGMGVSWIRQPPGKGLEWLAHIYWDDDKRYSPSLKSRLTISKDASKDQVVLTMTNMDTVDTATYYCGRRVRNYFSGTSYWYFDVWGTGTLVTVSS
VL: DVVMTQSPLSLPVTLGQPASISCRSSQNILHRTGNTYLEWFQQRPGQSPRLLIYKVSNRFSGVPDRFSGSGSGTDFTLKISRVEAEDVGVYYCFQGSYVPFTFGQGTKLEIK
notes: as for B1
B6: 3159 HC3 + LC3 (humanized) (antibody, V domains shown)
VH: QITLKESGPTLVKPTQTLTLTCTLSGFSLSTSGMGVSWIRQPPGKALEWLAHIYWDDDKRYNPSLKSRLTITKDASKDQVVLTMTNMDTVDTATYYCGRRVRNYFSGTSYWYFDVWGTGTLVTVSS
VL: DIVMTQSPLSLPVTPGEPASISCRSSQNILHRTGNTYLDWYLQKPGQSPQLLIYKVSNRFSGVPDRFSGSGSGTDFTLKISRVEAEDVGVYYCFQGSYVPFTFGQGTKLEIK
notes: as for B1
B7: 3159 HC2 + LC3 (humanized) (antibody, V domains shown)
VH: QVTLKESGPVLVKPTETLTLTCTVSGFSLSTSGMGVSWIRQPPGKGLEWLAHIYWDDDKRYSPSLKSRLTISKDASKDQVVLTMTNMDTVDTATYYCGRRVRNYFSGTSYWYFDVWGTGTLVTVSS
VL: DIVMTQSPLSLPVTPGEPASISCRSSQNILHRTGNTYLDWYLQKPGQSPQLLIYKVSNRFSGVPDRFSGSGSGTDFTLKISRVEAEDVGVYYCFQGSYVPFTFGQGTKLEIK
notes: as for B1
B8: 3159 HC1 + LC2 (humanized) (antibody, V domains shown)
VH: QVTLRESGPALVKPTQTLTLTCTLSGFSLSTSGMGVSWIRQPPGKALEWLAHIYWDDDKRYSTSLKTRLTISKDASKDQVVLTMTNMDTVDTATYYCGRRVRNYFSGTSYWYFDVWGTGTLVTVSS
VL: DVVMTQSPLSLPVTLGQPASISCRSSQNILHRTGNTYLEWFQQRPGQSPRLLIYKVSNRFSGVPDRFSGSGSGTDFTLKISRVEAEDVGVYYCFQGSYVPFTFGQGTKLEIK
notes: as for B1
B9: 3159 HC1 + LC1 (humanized) (antibody, V domains shown)
VH: QVTLRESGPALVKPTQTLTLTCTLSGFSLSTSGMGVSWIRQPPGKALEWLAHIYWDDDKRYSTSLKTRLTISKDASKDQVVLTMTNMDTVDTATYYCGRRVRNYFSGTSYWYFDVWGTGTLVTVSS
VL: DIVMTQTPLSLSVTPGQPASISCKSSQNILHRTGNTYLEWYLQKPGQPPQLLIYKVSNRFSGVPDRFSGSGSGTDFTLKISRVEAEDVGVYYCFQGSYVPFTFGQGTKLEIK
notes: as for B1
B10: 11857 HC1 + LC1 (humanized) (antibody, V domains shown)
VH: EVQLVQSGAEVKKPGATVKISCKVSGYTFTDYYMNWVQQAPGKSLEWMGNINPNNGGTDYNQKFQGRVTITADKSTSTAYMELSSLRSEDTAVYYCARSYGSRFPYWGLGTLVTVSS
VL: DIQMTQSPSSLSASVGDRVTITCRASQDITNYLSWYQQKPGGTVKLLLYYTAVLQSGFPSRFSGSGSGADYTLTISSLQPEDFATYYCQQGHTLPWTFGGGTKVEIK
notes: as for B1
B11: 11857 HC2 + LC1 (humanized) (antibody, V domains shown)
VH: EVQLVQSGAEVKKPGASVKVSCKASGYTFTDYYMNWVRQAPGKSLEWMGNINPNNGGTDYSQKFQGRVTITVDTSASTAYMELSSLRSEDTAVYYCARSYGSRFPYWGLGTLVTVSS
VL: DIQMTQSPSSLSASVGDRVTITCRASQDITNYLSWYQQKPGGTVKLLLYYTAVLQSGFPSRFSGSGSGADYTLTISSLQPEDFATYYCQQGHTLPWTFGGGTKVEIK
notes: as for B1
B12: 11857 HC3 + LC2 (humanized) (antibody, V domains shown)
VH: EVQLVQSGAEVKKPGASVKVSCKASGYTFTDYYMNWVRQAPGKSLEWMGNINPNNGGTDYNQKFQGRVTLTVDTSISTAYMELSRLRSDDTVVYYCARSYGSRFPYWGLGTLVTVSS
VL: DIQMTQSPSSLSASVGDRVTITCRASQDITNYLSWYQQKPGGTVKLLIFYTAVLQSGFPSRFSGSGSGADFTLTISSLQPEDVATYYCQQGHTLPWTFGGGTKVEIK
B13: 11857 HC1 + LC3 (humanized) (antibody, V domains shown)
VH: EVQLVQSGAEVKKPGATVKISCKVSGYTFTDYYMNWVQQAPGKSLEWMGNINPNNGGTDYNQKFQGRVTITADKSTSTAYMELSSLRSEDTAVYYCARSYGSRFPYWGLGTLVTVSS
VL: DIQMTQSPSSLSASVGDRVTITCRASQDITNYLSWFQQKPGGTVKLLIYYTAVLQSGFPSRFSGSGSGADFTLTISSLQPEDFATYYCQQGHTLPWTFGGGTKVEIK
notes: as for B1
B14: 11857 HC1 + LC2 (humanized) (antibody, V domains shown)
VH: EVQLVQSGAEVKKPGATVKISCKVSGYTFTDYYMNWVQQAPGKSLEWMGNINPNNGGTDYNQKFQGRVTITADKSTSTAYMELSSLRSEDTAVYYCARSYGSRFPYWGLGTLVTVSS
VL: DIQMTQSPSSLSASVGDRVTITCRASQDITNYLSWYQQKPGGTVKLLIFYTAVLQSGFPSRFSGSGSGADFTLTISSLQPEDVATYYCQQGHTLPWTFGGGTKVEIK
notes: as for B1
B15: 11857 HC3 + LC1 (humanized) (antibody, V domains shown)
VH: EVQLVQSGAEVKKPGASVKVSCKASGYTFTDYYMNWVRQAPGKSLEWMGNINPNNGGTDYNQKFQGRVTLTVDTSISTAYMELSRLRSDDTVVYYCARSYGSRFPYWGLGTLVTVSS
VL: DIQMTQSPSSLSASVGDRVTITCRASQDITNYLSWYQQKPGGTVKLLLYYTAVLQSGFPSRFSGSGSGADYTLTISSLQPEDFATYYCQQGHTLPWTFGGGTKVEIK
notes: as for B1
B16: 11857 HC2 + LC2 (humanized) (antibody, V domains shown)
VH: EVQLVQSGAEVKKPGASVKVSCKASGYTFTDYYMNWVRQAPGKSLEWMGNINPNNGGTDYSQKFQGRVTITVDTSASTAYMELSSLRSEDTAVYYCARSYGSRFPYWGLGTLVTVSS
VL: DIQMTQSPSSLSASVGDRVTITCRASQDITNYLSWYQQKPGGTVKLLIFYTAVLQSGFPSRFSGSGSGADFTLTISSLQPEDVATYYCQQGHTLPWTFGGGTKVEIK
notes: as for B1

Experiments:
[1] = target: T1, human uPAR (recombinant protein used in ELISA and BLI) (human, UniProt Q03405 23-305, limits assumed); test: BLI (Octet HTX)
T1 construct: Whole entry named; also called biotinylated human uPAR
Procedure: (§1) Kinetic constant ranges for Octet HTX were between 1 mM to 10 pM.

[2] = target: T2, cynomolgus uPAR (recombinant) (cynomolgus monkey, UniProt Q9GK78 23-303, limits assumed); test: BLI (Octet HTX)
T2 construct: also called cyno uPAR; AF647-cyno uPAR
T2 sequence (looked up): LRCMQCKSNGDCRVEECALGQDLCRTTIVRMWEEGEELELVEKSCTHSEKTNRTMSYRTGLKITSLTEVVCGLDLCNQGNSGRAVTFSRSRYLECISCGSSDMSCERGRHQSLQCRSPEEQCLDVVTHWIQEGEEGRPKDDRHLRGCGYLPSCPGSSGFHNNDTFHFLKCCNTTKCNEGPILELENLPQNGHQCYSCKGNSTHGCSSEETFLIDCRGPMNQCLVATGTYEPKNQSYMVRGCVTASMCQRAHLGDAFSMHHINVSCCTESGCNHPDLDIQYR
Procedure: as §1

[3] = target: T3, human uPAR displayed on the surface of MDA-MB-231 cells (human, UniProt Q03405 23-305); test: flow cytometry on MDA-MB-231 cells
T3 construct: whole, on cells; also called cell-surface uPAR; cellular uPAR
T3 sequence (Q03405 23-305): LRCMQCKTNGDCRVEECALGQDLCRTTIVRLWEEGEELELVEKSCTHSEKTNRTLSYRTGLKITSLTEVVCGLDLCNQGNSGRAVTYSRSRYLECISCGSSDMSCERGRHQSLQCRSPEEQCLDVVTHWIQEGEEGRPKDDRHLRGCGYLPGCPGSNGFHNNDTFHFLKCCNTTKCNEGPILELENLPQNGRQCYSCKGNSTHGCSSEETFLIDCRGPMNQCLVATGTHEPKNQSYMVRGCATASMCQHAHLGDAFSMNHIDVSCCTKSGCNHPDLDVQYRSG

T1 sequence (Q03405 23-305 limits assumed): as the sequence (Q03405 23-305) above

Binder | Kd [1] [nM] | Kd [2] [nM] | EC50 [3] [µg/mL]
B1 | 5.58 | 162 | 0.27
B2 | 4.66 | 2240 | 0.214
B3 | < 0.01 | 41.1 | 0.379
B4 | < 0.01 | 202 | 0.488
B5 | < 0.01 | 404 | 0.32
B6 | 7.39 | 58.5 | 0.185
B7 | < 0.01 | 255 | 0.205
B8 | < 0.01 | 5870 | 0.518
B9 | 6.79 | 556 | 0.187
B10 | 127 | 69.7 | 0.695
B11 | 125 | 307 | 0.432
B12 | 75.6 | 59.6 | 
B13 |  |  | 1.21
B14 | 53.4 | 32.4 | 0.223
B15 | 147 | 83.9 | 0.304
B16 | 45.7 | 59.5 | 0.212
